T1: protein H (COOH-terminally truncated fragment expressed by and purified from E. coli) (Streptococcus pyogenes, UniProt P50470 42-346)
T1 construct: also called recombinant protein H; soluble protein H
T1 sequence: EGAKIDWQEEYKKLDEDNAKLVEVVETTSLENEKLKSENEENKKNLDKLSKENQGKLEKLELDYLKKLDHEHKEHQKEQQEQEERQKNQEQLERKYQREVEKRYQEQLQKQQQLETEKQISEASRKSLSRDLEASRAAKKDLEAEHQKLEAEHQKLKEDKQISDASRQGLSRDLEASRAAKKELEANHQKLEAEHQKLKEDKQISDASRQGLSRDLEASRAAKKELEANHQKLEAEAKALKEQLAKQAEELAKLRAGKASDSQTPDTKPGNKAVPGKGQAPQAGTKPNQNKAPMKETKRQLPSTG

B1: COOH-terminal fragment of NPM, in vitro translated (peptide)
chain: KVPQKKVKLAADEDDDDDDEEDDDEDDDDDDFDDEEAEEKAPVKKSIRDTPAKNAQKSNQNGKDSKPSSTPRSKGQESFKKQEKTPKTPKGPSSVEDIKAKMQASIEKGGSLPKVEAKFINYVKNCFRMTDQEAIQDLWQWRKSL
notes: domain: COOH-terminal half; also called COOH-terminal peptide; COOH-terminal half of NPM

Key:
[1] = molecular target: nucleophosmin/B23 (NPM), papain-released material from Jurkat membrane preparations (Mono-Q pool 85-87) (human) (UniProt P06748); assay: competitive inhibition of the binding of 125I-labelled NPM to protein H-Sepharose by unlabeled fragment AB
[2] = molecular target: T1, protein H (COOH-terminally truncated …); assay: 35S-labelled in vitro translated peptide applied to protein H-Sepharose, KSCN eluate on SDS-PAGE, autoradiography

nucleophosmin/B23 (NPM), papain-released material from Jurkat membrane preparations (Mono-Q pool 85-87) (human), sequence (P06748 1-149 limits assumed): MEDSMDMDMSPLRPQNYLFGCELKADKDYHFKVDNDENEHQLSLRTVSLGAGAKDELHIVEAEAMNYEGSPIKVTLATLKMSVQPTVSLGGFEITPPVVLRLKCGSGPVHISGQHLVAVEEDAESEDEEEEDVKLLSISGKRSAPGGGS

Row | Molecule | IC50 (read off the curve) [1] [pmol] | binding result [2]
1 | fragment AB of protein H (peptide) | 100 | –
2 | B1 | – | no binding
